From patent publication US20240168030A1, “DIRECT FLUORESCENT GLYCAN LABELING” (BIO-TECHNE CORPORATION, priority 2019, published 2024)

Columns and labels:
Format in all cases: biochemical
[1] = biological target: T1, ST3Gal1 (Homo sapiens, UniProt Q11201); experiment: Direct fluorescent glycan labeling (DFGL) with fluorophore-conjugated sialic acid by ST3Gal1; details: for Lower limit of detection of acceptor protein labeled by ST3Gal1: 0.2 nmol CMP-Cy5-SA, fluorescent imaging of SDS-PAGE
T1 construct: purchased R&D Systems (Bio-Techne, Minneapolis, MN)
T1 sequence (Q11201 1-340): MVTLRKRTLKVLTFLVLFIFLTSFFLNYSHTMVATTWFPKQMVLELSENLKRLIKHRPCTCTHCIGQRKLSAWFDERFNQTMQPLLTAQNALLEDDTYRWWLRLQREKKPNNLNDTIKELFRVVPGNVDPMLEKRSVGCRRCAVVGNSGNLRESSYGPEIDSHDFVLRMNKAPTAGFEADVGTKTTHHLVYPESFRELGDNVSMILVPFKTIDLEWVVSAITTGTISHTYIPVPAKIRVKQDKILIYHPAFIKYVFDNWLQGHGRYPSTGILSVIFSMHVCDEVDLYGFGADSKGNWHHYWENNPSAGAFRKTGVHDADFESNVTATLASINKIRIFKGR

[2] = biological target: T2, ST6Gal1 (Homo sapiens, UniProt P15907); experiment: DFGL with fluorophore-conjugated sialic acid by ST6Gal1; details: for Lower limit of detection of acceptor protein labeled by ST6Gal1: 0.2 nmol CMP-Cy5-SA, fluorescent imaging of SDS-PAGE
T2 construct: purchased R&D Systems (Bio-Techne, Minneapolis, MN)
T2 sequence (P15907 1-406): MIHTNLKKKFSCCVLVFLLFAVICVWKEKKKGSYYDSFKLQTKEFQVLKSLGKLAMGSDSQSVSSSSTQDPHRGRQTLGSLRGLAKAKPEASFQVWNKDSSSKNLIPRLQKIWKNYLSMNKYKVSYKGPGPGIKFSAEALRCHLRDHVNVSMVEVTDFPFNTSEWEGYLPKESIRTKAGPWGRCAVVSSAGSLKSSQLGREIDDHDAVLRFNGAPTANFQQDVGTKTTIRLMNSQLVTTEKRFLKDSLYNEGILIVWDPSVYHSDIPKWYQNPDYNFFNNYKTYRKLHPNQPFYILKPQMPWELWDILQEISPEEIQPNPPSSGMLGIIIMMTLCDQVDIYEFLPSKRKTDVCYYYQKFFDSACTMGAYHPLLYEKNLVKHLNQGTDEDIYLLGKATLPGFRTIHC

[3] = tested on: fetal bovine fetuin and asialofetuin; experiment: Labeling of fetuin and asialofetuin by sialyltransferases with CMP-f-SA; details: CMP-f-SA donors, FIG. 2
[4] = 0.2 μg enzyme, 30 μL, 37° C., 30 minutes
[5] = 0.2 μg enzyme, 30 μL, 37° C., 30 minutes, listed as AF
[6] = 5 μg asialofetuin, 0.2 μg enzyme, 30 μL, 37° C., 30 minutes
[7] = 5 μg asialofetuin, 0.2 μg enzyme, 30 μL, FIG. 4

MUC1: recombinant mucin from R&D Systems, contains O-glycans [reference compound]
Lower limit of detection of acceptor protein labeled by ST3Gal1 [1, 4]: around 0.012 μg

asialofetuin: desialylated fetal bovine fetuin, model glycoprotein from Sigma-Aldrich [reference compound]
Lower limit of detection of acceptor protein labeled by ST3Gal1 [1, 4]: 0.37 µg
Lower limit of detection of acceptor protein labeled by ST3Gal1 [1, 5]: lower than 0.37 μg
Lower limit of detection of acceptor protein labeled by ST6Gal1 [2, 4]: 0.37 µg
Lower limit of detection of acceptor protein labeled by ST6Gal1 [2, 5]: lower than 0.37 μg

cytidine monophosphate activated Cy5-conjugated sialic acid [CMP-Cy5-SA]
Donor amount at which maximal labeling by ST3Gal1 was achieved [1, 6]: 37.0 pmol
Donor amount at which visible labeling on asialofetuin by ST3Gal1 was observed [1, 6]: 4.11 pmol
Donor concentration for maximal labeling of asialofetuin by ST3Gal1 [1, 7]: 1.2 µM
Donor concentration needed for maximal labeling of asialofetuin by ST3Gal1 ([1]; FIG. 4): 1.21 µM
Donor amount at which maximal labeling by ST6Gal1 was achieved [2, 6]: 37.0 pmol
Donor amount at which visible labeling on asialofetuin by ST6Gal1 was observed [2, 6]: 1.37 pmol
Donor concentration for maximal labeling of asialofetuin by ST6Gal1 [2, 7]: 1.2 µM
Donor concentration needed for maximal labeling of asialofetuin by ST6Gal1 ([2]; FIG. 4): 1.21 µM

B1: α-2,3-sialyltransferase 2 (protein, UniProt Q16842 1-350, looked up)
CMP-N-acetylneuraminate-beta-g …: MKCSLRVWFLSVAFLLVFIMSLLFTYSHHSMATLPYLDSGALDGTHRVKLVPGYAGLQRLSKERLSGKSCACRRCMGDAGASDWFDSHFDGNISPVWTRENMDLPPDVQRWWMMLQPQFKSHNTNEVLEKLFQIVPGENPYRFRDPHQCRRCAVVGNSGNLRGSGYGQDVDGHNFIMRMNQAPTVGFEQDVGSRTTHHFMYPESAKNLPANVSFVLVPFKVLDLLWIASALSTGQIRFTYAPVKSFLRVDKEKVQIYNPAFFKYIHDRWTEHHGRYPSTGMLVLFFALHVCDEVNVYGFGADSRGNWHHYWENNRYAGEFRKTGVHDADFEAHIIDMLAKASKIEVYRGN
notes: recombinant human sialyltransferase, Core-1 O-glycan specific
Which of fetuin and asialofetuin the sialyltransferase labeled [3]: primarily labeled asialofetuin, but also weakly labeled fetuin

B2: α-N-acetylgalactosaminide α-2,6-sialyltransferase 4 (protein, UniProt Q9H4F1 1-302, looked up)
Alpha-N-acetyl-neuraminyl-2,3- …: MKAPGRLVLIILCSVVFSAVYILLCCWAGLPLCLATCLDHHFPTGSRPTVPGPLHFSGYSSVPDGKPLVREPCRSCAVVSSSGQMLGSGLGAEIDSAECVFRMNQAPTVGFEADVGQRSTLRVVSHTSVPLLLRNYSHYFQKARDTLYMVWGQGRHMDRVLGGRTYRTLLQLTRMYPGLQVYTFTERMMAYCDQIFQDETGKNRRQSGSFLSTGWFTMILALELCEEIVVYGMVSDSYCREKSHPSVPYHYFEKGRLDECQMYLAHEQAPRSAHRFITEKAVFSRWAKKRPIVFAHPSWRTE
notes: recombinant human sialyltransferase, O-GalNAc specific
Which of fetuin and asialofetuin the sialyltransferase labeled [3]: only labeled fetuin

B3: α-N-acetylgalactosaminide α-2,6-sialyltransferase 1 (protein, UniProt Q9NSC7 1-600, looked up)
Alpha-N-acetylgalactosaminide …: MRSCLWRCRHLSQGVQWSLLLAVLVFFLFALPSFIKEPQTKPSRHQRTENIKERSLQSLAKPKSQAPTRARRTTIYAEPVPENNALNTQTQPKAHTTGDRGKEANQAPPEEQDKVPHTAQRAAWKSPEKEKTMVNTLSPRGQDAGMASGRTEAQSWKSQDTKTTQGNGGQTRKLTASRTVSEKHQGKAATTAKTLIPKSQHRMLAPTGAVSTRTRQKGVTTAVIPPKEKKPQATPPPAPFQSPTTQRNQRLKAANFKSEPRWDFEEKYSFEIGGLQTTCPDSVKIKASKSLWLQKLFLPNLTLFLDSRHFNQSEWDRLEHFAPPFGFMELNYSLVQKVVTRFPPVPQQQLLLASLPAGSLRCITCAVVGNGGILNNSHMGQEIDSHDYVFRLSGALIKGYEQDVGTRTSFYGFTAFSLTQSLLILGNRGFKNVPLGKDVRYLHFLEGTRDYEWLEALLMNQTVMSKNLFWFRHRPQEAFREALHMDRYLLLHPDFLRYMKNRFLRSKTLDGAHWRIYRPTTGALLLLTALQLCDQVSAYGFITEGHERFSDHYYDTSWKRLIFYINHDFKLEREVWKRLHDEGIIRLYQRPGPGTAKAKN
notes: as for B2
Which of fetuin and asialofetuin the sialyltransferase labeled [3]: labeled both fetuin and asialofetuin
